Substrate: OC[C@H]1O[C@@](CO)(O[C@H]2O[C@H](CO)[C@@H](O)[C@H](O)[C@H]2O)[C@@H](O)[C@@H]1O
Experiment: initial-rate kinetics, DNS reducing sugar assay, Michaelis-Menten fit
Type: biochemical, Bacillus sp. HJ14
Settings: 30 °C, McIlvaine buffer pH 8.0, 1.5-36.5 mM sucrose
Excerpt: initial-rate kinetics, DNS reducing sugar assay, Michaelis-Menten fit on rInvHJ14 (InvHJ14)

B1: rInvHJ14 (InvHJ14) (Bacillus sp. HJ14) (protein)
chain: MTTTDAALRQKIADRIRNYEHLVKKDVYRQHFHLMPPVGLLNDPNGLIQWKGIYHVFYQWQPFKTGHGAKFWGHYTSTDLVNWQHEEAALAPSDWFDQNGCYSGSAFIDDGQMHVMYTGNVRDEQGNRETYQCLAVSEDGIHFQKKGVVATLPEGFTAHFRDPKVWKRNGQWYMVLGAQSLDLKGHLVLFTSDTLDNWTFQGTIAGSGKNGLDNFGYMWECPDLFELDGRDVLIVSPQGLEPDGLKYHNTHQSGYFVGTLDDHSYQYTHGAFEELDRGFDFYAQQTFLDESGRRLLIGWMGVPDQGEEHHPTISYQWIHCLTIPRELRLDEDGHLIQKPVSELQSMRTNEQEHVFHIKRSVHSIPVEDITSAEVFIDQIDTQKGFECCIRAAARIIYDKEEGKLTLERDRFEDRSKEVREAVIEELHDLHIFIDSSSIEIFVNGGREVFTARYFPSPGNKSISISGRNETKLKLKAWHLQREADQ
notes: pEASY-E2 vector, E. coli BL21 (DE3), Ni-NTA purified, approximately 58 kDa on SDS-PAGE
**Q.** Which results are given for B1?
**A.** Km: 62.9 mM; Vmax: 772 µmol/min/mg; kcat: 746 s⁻¹; kcat/Km: 11900 M⁻¹ s⁻¹
